Assay results from US20110059095A1.
Where a chain is given by its changes, count along the chain named. Values belong to the binder of their own block, whether it stands above or below them.

What was measured:
[1] = biological target: full length mouse PAR-2 (mouse) (UniProt P55086); test: cell-based or functional assay
[2] = biological target: full length human PAR-2 (human) (UniProt P55085); test: cell ELISA, 10 ug/ml antibody
monkey PAR-2 (monkey) = test: cell-based or functional assay
[3] = biological target: full length human PAR-2 (human) (UniProt P55085); test: cell-based or functional assay

full length human PAR-2 (human), sequence (P55085 26-397 G138A limits assumed): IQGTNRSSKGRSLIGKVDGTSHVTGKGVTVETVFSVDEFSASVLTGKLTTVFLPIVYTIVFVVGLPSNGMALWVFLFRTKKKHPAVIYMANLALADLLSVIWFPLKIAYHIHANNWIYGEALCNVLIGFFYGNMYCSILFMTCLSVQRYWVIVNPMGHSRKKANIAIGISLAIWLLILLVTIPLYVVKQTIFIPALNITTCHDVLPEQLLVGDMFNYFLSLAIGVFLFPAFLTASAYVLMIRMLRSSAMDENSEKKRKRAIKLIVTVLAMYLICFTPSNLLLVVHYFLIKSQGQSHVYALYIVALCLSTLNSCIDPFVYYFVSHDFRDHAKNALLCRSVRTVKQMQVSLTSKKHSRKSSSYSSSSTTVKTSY
full length mouse PAR-2 (mouse), sequence (P55086 other isoform, or with tags, fused parts or gaps limits assumed): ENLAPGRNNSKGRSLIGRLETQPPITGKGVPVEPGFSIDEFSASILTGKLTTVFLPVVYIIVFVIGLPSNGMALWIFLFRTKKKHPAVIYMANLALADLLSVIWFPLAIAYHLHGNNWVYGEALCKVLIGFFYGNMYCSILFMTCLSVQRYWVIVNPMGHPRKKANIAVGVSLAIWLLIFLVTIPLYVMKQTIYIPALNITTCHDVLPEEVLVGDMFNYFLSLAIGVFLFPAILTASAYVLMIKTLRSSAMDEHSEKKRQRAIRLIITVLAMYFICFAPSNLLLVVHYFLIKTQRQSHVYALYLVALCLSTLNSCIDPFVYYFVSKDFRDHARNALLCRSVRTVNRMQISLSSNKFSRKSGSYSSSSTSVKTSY

B2: H2M611N (antibody, V domains shown)
VH: EVQLLESGGGLVQPGGSLRLSCAASGFTFSSYAMTWVRQAPGKGLYWVSAISGSGGSAYYADSVKGRFTISRDNSKNTLYLQMNSLRAEDTAVYYCAKEGDSGYDLDYWGRGTLVTVSS
VL: DIQMTQSPSSLSASVGDRVTITCRARQGISNYLAWLQQKPGKAPKSLIYAASSLQSGVPSKFSGSGSGTDFTLTISSLQPEDFATYYCQQYKSSPLTFGGGTKVEIK
A450 ratio (293/D9/hPAR-2rec to 293/D9 cells) [2]: 1.76

B4: H2M609N (antibody, V domains shown)
VH: EVQLVESGGGLVQPGRSLRLSCAASGFTFDDYAMHWVRQAPGKGLEWVSGISWNSGSKGFADSVKGRFTISRDNAKNSLYLQMNSLRVEDTALYYCAKENWSFDYWGQGTLVTVSS
VL: DIVMTQTPLSSPVTLGQPASISCRSSQSLVHSDGNIYLSWLQQRPGQPPRLLIYKISNRFSGVPDRFSGSGAGTDFTLKISRVEAEDVGIYYCMQASHFPYTFGQGTKLEIK
A450 ratio (293/D9/hPAR-2rec to 293/D9 cells) [2]: 1.54

B5: H1M619N (antibody, V domains shown)
VH: B4 VH with P14A, K58R, F60Y, Y80H, N84Y, V88A
VL: B4 VL with I36T, N58Y, E84A, A85T, I90V, S97T, H98Q, F99L
A450 ratio (293/D9/hPAR-2rec to 293/D9 cells) [2]: 1.51

The next lines start with the values.

H4H581P IC50, NF-kB-luciferase, Bovine Factor Xa [1]: 340 nM
H4H581P IC50, NF-kB-luciferase, Human Factor Xa [1]: 109 nM
H4H581P IC50, NF-kB-luciferase, Human Kallikrein 14 [1]: 256 nM
H4H581P IC50, NF-kB-luciferase, Human Pancreatic Trypsin [1]: 491 nM
B1: H4H581P (antibody, human IgG4, V domains shown)
VH: QVQLVESGGGVVQPGRSLRLSCVASGFTFSRYGIHWVRQAPGKGLEWVIVISYDGINKYYADSVKGRFTISRDNSKNTVYLQMNSLRAEDTAVYYCAKGDFWSGYFDYWGQGTLVTVSS
VL: DIVMTQTPLSSPVTLGQPASISCRSSQSLVHSDGNTYLSWLHQRPGQPPRLLIYKISNRFSGVPDRFSGSGAGTDFTLQISRVEAEDVGIYYCMQATQFPTFGGGTKVEIK

EC50 of activator, NF-kB-luciferase (monkey PAR-2 (monkey)): 6.3 nM
EC50 of activator, NF-kB-luciferase [1]: 8 nM
EC50 of activator, NF-kB-luciferase [3]: 5 nM
B3: Human Kallikrein 14 (enzyme, UniProt Q9P0G3 25-251, looked up)
chain: IIGGHTCTRSSQPWQAALLAGPRRRFLCGGALLSGQWVITAAHCGRPILQVALGKHNLRRWEATQQVLRVVRQVTHPNYNSRTHDNDLMLLQLQQPARIGRAVRPIEVTQACASPGTSCRVSGWGTISSPIARYPASLQCVNINISPDEVCQKAYPRTITPGMVCAGVPQGGKDSCQGDSGGPLVCRGQLQGLVSWGMERCALPGYPGVYTNLCKYRSWIEETMRDK

A450 ratio (293/D9/hPAR-2rec to 293/D9 cells) [2]: 1.24
B6: H3M620N (antibody, V domains shown)
VH: EVQLVESGGNVVRPGGSLRLSCAASGFTFDDYGMTWVRQVPGKGLEWVSGINWNGGSTDYADSVKGRFTISRDNAKNSLYLQMNSLRAEDTALYYCARDKGFYGMDVWGQGTTVTVSS
VL: DIVMTQSPDSLAVSLGERATINCKSSQNPLYNSNKKKYLAWYQQKPGQPPKLVIYWASTRESGVPDRFSGSGSGTDFTLTITSLQAEDVAVYYCQQYYSTPYTFGQGTKLEIK
